T1: Flag-PALB2 WT (Partner and Localiser of BRCA2) (UniProt Q86YC2 1-1186)
T1 construct: PALB2 (Partner and Localiser of BRCA2), wild type; printed both as Flag-PALB2 and as PALB2-Flag; also called PALB2-Flag; pDEST-FRT/T0-Flag-PALB2; source: HEK293FT, transiently co-transfected, in lysate
T1 sequence (looked up): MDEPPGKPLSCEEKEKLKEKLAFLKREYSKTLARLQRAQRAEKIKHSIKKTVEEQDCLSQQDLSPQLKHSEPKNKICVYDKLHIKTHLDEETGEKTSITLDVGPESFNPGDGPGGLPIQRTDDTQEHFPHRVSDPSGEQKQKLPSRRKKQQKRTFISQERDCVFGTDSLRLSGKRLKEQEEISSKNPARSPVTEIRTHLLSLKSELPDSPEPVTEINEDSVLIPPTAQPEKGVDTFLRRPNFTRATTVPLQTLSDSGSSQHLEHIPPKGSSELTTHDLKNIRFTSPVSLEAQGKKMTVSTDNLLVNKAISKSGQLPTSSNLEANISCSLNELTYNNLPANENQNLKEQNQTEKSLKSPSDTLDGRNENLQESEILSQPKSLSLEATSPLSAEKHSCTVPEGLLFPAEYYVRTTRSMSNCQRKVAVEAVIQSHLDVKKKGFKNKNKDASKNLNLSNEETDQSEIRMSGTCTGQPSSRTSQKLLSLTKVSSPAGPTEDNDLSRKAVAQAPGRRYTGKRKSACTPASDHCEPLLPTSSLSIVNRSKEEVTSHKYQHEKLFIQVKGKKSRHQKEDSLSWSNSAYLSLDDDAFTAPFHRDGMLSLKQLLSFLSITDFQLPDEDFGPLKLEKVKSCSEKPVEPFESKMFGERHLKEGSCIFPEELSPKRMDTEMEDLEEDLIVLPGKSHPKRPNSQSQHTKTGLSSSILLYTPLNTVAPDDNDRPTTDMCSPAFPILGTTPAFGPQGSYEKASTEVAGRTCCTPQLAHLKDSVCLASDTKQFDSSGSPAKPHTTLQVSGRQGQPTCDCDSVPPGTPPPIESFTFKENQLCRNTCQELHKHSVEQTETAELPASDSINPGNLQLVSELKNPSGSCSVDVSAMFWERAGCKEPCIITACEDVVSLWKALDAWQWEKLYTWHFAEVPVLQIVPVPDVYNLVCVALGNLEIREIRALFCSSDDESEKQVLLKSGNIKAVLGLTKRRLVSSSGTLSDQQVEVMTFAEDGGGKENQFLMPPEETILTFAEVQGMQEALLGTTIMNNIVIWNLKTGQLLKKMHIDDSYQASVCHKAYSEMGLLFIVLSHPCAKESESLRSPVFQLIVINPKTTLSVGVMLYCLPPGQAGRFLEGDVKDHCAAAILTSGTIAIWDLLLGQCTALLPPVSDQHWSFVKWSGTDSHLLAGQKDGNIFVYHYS

T2: BARD1-V5 WT (BRCA1-Associated RING Domain protein 1) (UniProt Q99728 1-777)
T2 construct: BARD1 (BRCA1-Associated RING Domain protein 1), wild type; also called pcDNA6.2-BARD1-V5; source: HEK293FT, transiently co-transfected, in lysate
T2 sequence (looked up): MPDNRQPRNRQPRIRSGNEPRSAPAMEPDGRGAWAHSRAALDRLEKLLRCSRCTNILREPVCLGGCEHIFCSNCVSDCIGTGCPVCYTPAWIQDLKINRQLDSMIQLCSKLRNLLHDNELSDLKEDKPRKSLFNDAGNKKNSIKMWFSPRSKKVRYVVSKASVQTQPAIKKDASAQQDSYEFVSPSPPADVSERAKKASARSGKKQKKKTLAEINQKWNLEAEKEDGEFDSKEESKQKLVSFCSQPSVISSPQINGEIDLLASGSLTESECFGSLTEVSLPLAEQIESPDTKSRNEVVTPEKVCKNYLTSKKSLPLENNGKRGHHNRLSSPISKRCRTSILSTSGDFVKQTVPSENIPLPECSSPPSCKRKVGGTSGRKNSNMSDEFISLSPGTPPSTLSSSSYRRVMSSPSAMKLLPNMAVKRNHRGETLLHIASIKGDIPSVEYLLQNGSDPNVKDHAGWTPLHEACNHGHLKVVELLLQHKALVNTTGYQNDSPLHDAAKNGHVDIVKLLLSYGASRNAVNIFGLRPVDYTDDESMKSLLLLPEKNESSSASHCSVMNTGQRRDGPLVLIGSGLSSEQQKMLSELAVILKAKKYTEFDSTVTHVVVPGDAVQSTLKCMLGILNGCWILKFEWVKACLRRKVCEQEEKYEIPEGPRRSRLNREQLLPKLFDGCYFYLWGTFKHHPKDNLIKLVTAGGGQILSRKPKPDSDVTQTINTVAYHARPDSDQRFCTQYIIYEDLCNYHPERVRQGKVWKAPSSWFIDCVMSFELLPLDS

B1: BRCA1 p.Arg612Gly (full-length, mCherry-tagged) (natural protein, human, UniProt P38398 1-1863, looked up)
chain: MDLSALRVEEVQNVINAMQKILECPICLELIKEPVSTKCDHIFCKFCMLKLLNQKKGPSQCPLCKNDITKRSLQESTRFSQLVEELLKIICAFQLDTGLEYANSYNFAKKENNSPEHLKDEVSIIQSMGYRNRAKRLLQSEPENPSLQETSLSVQLSNLGTVRTLRTKQRIQPQKTSVYIELGSDSSEDTVNKATYCSVGDQELLQITPQGTRDEISLDSAKKAACEFSETDVTNTEHHQPSNNDLNTTEKRAAERHPEKYQGSSVSNLHVEPCGTNTHASSLQHENSSLLLTKDRMNVEKAEFCNKSKQPGLARSQHNRWAGSKETCNDRRTPSTEKKVDLNADPLCERKEWNKQKLPCSENPRDTEDVPWITLNSSIQKVNEWFSRSDELLGSDDSHDGESESNAKVADVLDVLNEVDEYSGSSEKIDLLASDPHEALICKSERVHSKSVESNIEDKIFGKTYRKKASLPNLSHVTENLIIGAFVTEPQIIQERPLTNKLKRKRRPTSGLHPEDFIKKADLAVQKTPEMINQGTNQTEQNGQVMNITNSGHENKTKGDSIQNEKNPNPIESLEKESAFKTKAEPISSSISNMELELNIHNSKAPKKNRLGRKSSTRHIHALELVVSRNLSPPNCTELQIDSCSSSEEIKKKKYNQMPVRHSRNLQLMEGKEPATGAKKSNKPNEQTSKRHDSDTFPELKLTNAPGSFTKCSNTSELKEFVNPSLPREEKEEKLETVKVSNNAEDPKDLMLSGERVLQTERSVESSSISLVPGTDYGTQESISLLEVSTLGKAKTEPNKCVSQCAAFENPKGLIHGCSKDNRNDTEGFKYPLGHEVNHSRETSIEMEESELDAQYLQNTFKVSKRQSFAPFSNPGNAEEECATFSAHSGSLKKQSPKVTFECEQKEENQGKNESNIKPVQTVNITAGFPVVGQKDKPVDNAKCSIKGGSRFCLSSQFRGNETGLITPNKHGLLQNPYRIPPLFPIKSFVKTKCKKNLLEENFEEHSMSPEREMGNENIPSTVSTISRNNIRENVFKEASSSNINEVGSSTNEVGSSINEIGSSDENIQAELGRNRGPKLNAMLRLGVLQPEVYKQSLPGSNCKHPEIKKQEYEEVVQTVNTDFSPYLISDNLEQPMGSSHASQVCSETPDDLLDDGEIKEDTSFAENDIKESSAVFSKSVQKGELSRSPSPFTHTHLAQGYRRGAKKLESSEENLSSEDEELPCFQHLLFGKVNNIPSQSTRHSTVATECLSKNTEENLLSLKNSLNDCSNQVILAKASQEHHLSEETKCSASLFSSQCSELEDLTANTNTQDPFLIGSSKQMRHQSESQGVGLSDKELVSDDEERGTGLEENNQEEQSMDSNLGEAASGCESETSVSEDCSGLSSQSDILTTQQRDTMQHNLIKLQQEMAELEAVLEQHGSQPSNSYPSIISDSSALEDLRNPEQSTSEKAVLTSQKSSEYPISQNPEGLSADKFEVSADSSTSKNKEPGVERSSPSKCPSLDDRWYMHSCSGSLQNRNYPSQEELIKVVDVEEQQLEESGPHDLTETSYLPRQDLEGTPYLESGISLFSDDPESDPSEDRAPESARVGNIPSSTSALKVPQLKVAESAQSPAAAHTTDTAGYNAMEESVSREKPELTASTERVNKRMSMVVSGLTPEEFMLVYKFARKHHITLTNLITEETTHVVMKTDAEFVCERTLKYFLGIAGGKWVVSYFWVTQSIKERKMLNEHDFEVRGDVVNGRNHQGPKRARESQDRKIFRGLEICCYGPFTNMPTDQLEWMVQLCGASVVKELSSFTLGTGVHPIVVVQPDAWTEDNGFHAIGQMCEAPVVTREWVLDSVALYQCQELDTYLIPQIPHSHY
notes: BRCA1, human, full-length, rare germline missense variant introduced in the WT plasmid; Made by site-directed mutagenesis of the plasmid of m1; also called c.1834A > G; source: HEK293FT, transiently co-transfected, in lysate
B2: BRCA1 p.Met1411Thr (full-length, mCherry-tagged; pathogenic control variant, coiled-coil domain) (natural protein, human, UniProt P38398 1-1863, looked up)
chain: B1 chain with G612R, M1411T
notes: BRCA1, human, full-length, pathogenic control missense variant in the coiled-coil domain, introduced in the WT plasmid; Made by site-directed mutagenesis of the plasmid of m1; also called c.4232T > C; source: HEK293FT, transiently co-transfected, in lysate
B3: BRCA1 p.Leu1439Phe (full-length, mCherry-tagged) (natural protein, human, UniProt P38398 1-1863, looked up)
chain: B1 chain with G612R, L1439F
notes: BRCA1, human, full-length, rare germline missense variant introduced in the WT plasmid; Made by site-directed mutagenesis of the plasmid of m1; also called c.4315C > T; source: HEK293FT, transiently co-transfected, in lysate
B4: BRCA1 p.Ile925Val (full-length, mCherry-tagged) (natural protein, human, UniProt P38398 1-1863, looked up)
chain: B1 chain with G612R, I925V
notes: BRCA1, human, full-length, rare germline missense variant introduced in the WT plasmid; Made by site-directed mutagenesis of the plasmid of m1; also called c.2773A > G; source: HEK293FT, transiently co-transfected, in lysate
B5: BRCA1 p.Glu575Lys (full-length, mCherry-tagged) (natural protein, human, UniProt P38398 1-1863, looked up)
chain: B1 chain with E575K, G612R
notes: BRCA1, human, full-length, rare germline missense variant introduced in the WT plasmid; Made by site-directed mutagenesis of the plasmid of m1; also called c.1723G > A; source: HEK293FT, transiently co-transfected, in lysate
B6: BRCA1 p.Lys503Arg (full-length, mCherry-tagged) (natural protein, human, UniProt P38398 1-1863, looked up)
chain: B1 chain with K503R, G612R
notes: BRCA1, human, full-length, rare germline missense variant introduced in the WT plasmid; Made by site-directed mutagenesis of the plasmid of m1; also called c.1508A > G; source: HEK293FT, transiently co-transfected, in lysate
B7: BRCA1 p.Gly890Arg (full-length, mCherry-tagged) (natural protein, human, UniProt P38398 1-1863, looked up)
chain: B1 chain with G612R, G890R
notes: BRCA1, human, full-length, rare germline missense variant introduced in the WT plasmid; Made by site-directed mutagenesis of the plasmid of m1; also called c.2668G > A; source: HEK293FT, transiently co-transfected, in lysate
B8: BRCA1 p.Gly933Asp (full-length, mCherry-tagged) (natural protein, human, UniProt P38398 1-1863, looked up)
chain: B1 chain with G612R, G933D
notes: BRCA1, human, full-length, rare germline missense variant introduced in the WT plasmid; Made by site-directed mutagenesis of the plasmid of m1; also called c.2798G > A; source: HEK293FT, transiently co-transfected, in lysate

Where a chain is given by its changes, count along the chain named.

One assay concerns the target T1, Flag-PALB2 WT (Partner and Localiser of …). Put plainly: co-IP; HEK293FT co-transfected with BRCA1 WT or variant and Flag-PALB2; 2 mg lysate protein incubated 90 min at 4 °C with Flag antibody coupled to Dynabeads Protein G; non-denaturing elution; BRCA1 in the IP detected by anti-BRCA1 blot, normalised to the anti-Flag signal, % of WT. To be noted: partners not purified.
Regarding B1, the “Co-IP PALB2 (% of WT)” value was 59 % of WT.
On the same count and under the same terms, as for B2, the figure is 11 % of WT; as for B3, 86 % of WT; as for B4, 88 % of WT.
Same read-out and setting: as for B5, the figure is 66 % of WT.
The same measure, in the same setting: under B6 stands 18 % of WT.
In the case of B7, the “Co-IP PALB2 (% of WT)” value is 89 % of WT.
The same measure, in the same setting: under B8 stands 115 % of WT.

The target in the next assay is T2, BARD1-V5 WT (BRCA1-Associated RING …). Put plainly: co-IP; HEK293FT co-transfected with BRCA1 WT or variant and BARD1-V5; 2 mg lysate protein incubated 90 min at 4 °C with V5 antibody coupled to Dynabeads Protein G; non-denaturing elution; BRCA1 in the IP detected by anti-BRCA1 blot, normalised to the anti-V5 signal, % of WT. Particulars: partners not purified.
On to B1, for which the “Co-IP BARD1 (% of WT)” value is 71 % of WT.
Same read-out and setting: under B3 stands 60 % of WT; under B4, 97 % of WT.
The same measure, in the same setting: under B5 stands 77 % of WT; under B7, 77 % of WT.
Same read-out and setting: as for B8, the figure is 73 % of WT.

Source of the values: paper PMC9957003, “Functional Analyses of Rare Germline Missense BRCA1 Variants Located within and outside Protein Domains with Known Functions” (Genes, 2023).
